# Test results: patent US20210371518A1 (University of Texas, published 2021)
# Positions count from the first letter of the chain named. “And” between values parts separate entries of the source, which are not always exact repeats. Identical values can stand only once.
# B1: h193 antibody No. 19 (h193-H3 / h193-K1) (antibody, V domains shown)
# VH: EVQLVESGGGLVQPGGSLRLSCAASGFSLSSSYWISWVRQAPGKGLEWIGSIDSGSVGITYYATWAKGRFTISRDNSKNTLYLQMNSLRAEDTAVYYCARHGDNWALDLWGQGTLVTVSS
# VL: DIQMTQSPSTLSASVGDRVTITCQASQSINSWLAWYQQKPGKAPKLLIYKASTLASGVPSRFSGSGSGTEFTLTISSLQPDDFATYYCQHGYIRGDLDNVFGGGTKVEIK
# B2: h193 antibody No. 27 (h193-H5 / h193-K1) (antibody, V domains shown)
# VH: B1 VH with S51V
# VL: B1 VL
# B3: h193 antibody No. 32 (h193-H6 / h193-K2) (antibody, V domains shown)
# VH: B1 VH with W65S
# VL: B1 VL with I2L, Q3V, A43P, P59S, F83V
# B4: h193 antibody No. 24 (h193-H4 / h193-K2) (antibody, V domains shown)
# VH: B1 VH with I49V, G50S
# VL: B1 VL with I2L, Q3V, A43P, P59S, F83V
# B5: h193 antibody No. 35 (h193-H7 / h193-K1) (antibody, V domains shown)
# VH: B1 VH with A66V
# VL: B1 VL
# B6: h193 antibody No. 31 (h193-H6 / h193-K1) (antibody, V domains shown)
# VH: B1 VH with W65S
# VL: B1 VL
# B7: h193 antibody No. 33 (h193-H6 / h193-K3) (antibody, V domains shown)
# VH: B1 VH with W65S
# VL: B1 VL with Q24R
# B8: h193 antibody No. 37 (h193-H7 / h193-K3) (antibody, V domains shown)
# VH: B1 VH with A66V
# VL: B1 VL with Q24R
# B9: h193 antibody No. 20 (h193-H3 / h193-K2) (antibody, V domains shown)
# VH: B1 VH
# VL: B1 VL with I2L, Q3V, A43P, P59S, F83V
# B10: h193 antibody No. 36 (h193-H7 / h193-K2) (antibody, V domains shown)
# VH: B1 VH with A66V
# VL: B1 VL with I2L, Q3V, A43P, P59S, F83V
# B11: h193 antibody No. 23 (h193-H4 / h193-K1) (antibody, V domains shown)
# VH: B1 VH with I49V, G50S
# VL: B1 VL
# B12: h193 antibody No. 28 (h193-H5 / h193-K2) (antibody, V domains shown)
# VH: B1 VH with S51V
# VL: B1 VL with I2L, Q3V, A43P, P59S, F83V
# Target: T1, human LILRB4 extracellular domain (ECD) recombinant protein (human, UniProt Q8NHJ6 22-259)
# T1 construct: extracellular domain; also called LILRB4 ECD; LILRB4-ECD
# Test: ELISA
row,EC50,Binder
1,0.294 µg/mL and 1.96 nM,B1
2,> 6 nM,B2
3,0.262 µg/mL and 1.74 nM,B3
4,0.467 µg/mL and 3.11 nM,B4
5,0.162 µg/mL and 1.08 nM,B5
6,0.314 µg/mL and 2.09 nM,B6
7,0.32 µg/mL and 2.13 nM,B7
8,0.163 µg/mL and 1.08 nM,B8
9,0.272 µg/mL and 1.81 nM,B9
10,0.145 µg/mL and 0.96 nM,B10
11,0.461 µg/mL and 3.07 nM,B11

# Target: T1, human LILRB4 extracellular domain (ECD) …
# Test: Octet
Kd [nM],koff [s⁻¹],kon [M⁻¹ s⁻¹],Binder
2.03,0.000294,145000,B1
2.38,0.000362,152000,B3
4.41,0.000595,135000,B4
1.05,0.000148,141000,B5
2.61,0.000376,144000,B6
2.33,0.000345,148000,B7
0.984,0.00014,143000,B8
1.67,0.00025,150000,B9
1.01,0.000144,143000,B10
5.83,0.000731,125000,B11

# Target: LILRB1 (human (not printed on the sheet), UniProt Q8NHL6)
# Sequence (Q8NHL6 24-461 limits assumed): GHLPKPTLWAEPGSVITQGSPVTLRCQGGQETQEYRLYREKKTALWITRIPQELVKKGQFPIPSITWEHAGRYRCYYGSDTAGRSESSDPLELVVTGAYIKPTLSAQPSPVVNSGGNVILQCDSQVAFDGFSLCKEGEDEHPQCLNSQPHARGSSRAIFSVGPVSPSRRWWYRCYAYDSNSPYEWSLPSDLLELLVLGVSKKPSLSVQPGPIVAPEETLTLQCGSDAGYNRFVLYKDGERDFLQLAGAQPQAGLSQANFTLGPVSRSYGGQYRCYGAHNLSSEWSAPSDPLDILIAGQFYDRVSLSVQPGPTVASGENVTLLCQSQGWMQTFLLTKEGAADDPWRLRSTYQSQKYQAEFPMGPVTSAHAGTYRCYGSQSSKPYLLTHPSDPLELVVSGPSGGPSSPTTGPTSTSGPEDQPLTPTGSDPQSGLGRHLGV
# Test: LILR reporter cells on coated antibody, GFP positive (%)
# Description: (§1) FIGS. 41A-41M illustrate specific binding of h193 antibodies to LILRB4 protein. FIGS. 41A-41L illustrate the specificity of h193 antibodies determined by LILR reporter assays, in which LILR reporter cells are added to the plates coated with h193 antibodies. The binding of h193 antibodies to the ECD of the LILR member on the surface of the reporter cells induced GFP signal. FIG. 41M illustrates the specificity of an exemplary h193 antibody determined by ELISA. LILRA and LILRB recombinant proteins were coated on high absorption 96-well plates. Serial diluted (5-fold) mAb h193 were added to the coated/blocked plates and detected using goat anti-human IgG F(ab)2 conjugated HRP as secondary antibody.
row,binding result,Binder
1,no binding,B1
2,no binding,B12
3,no binding,B2
4,no binding,B3
5,no binding,B4
6,no binding,B5
7,no binding,B6
8,no binding,B7
9,no binding,B8
10,no binding,B9
11,no binding,B10
12,no binding,B11

# Target: LILRB2 (human (not printed on the sheet), UniProt Q8N423)
# Sequence (Q8N423 22-460 limits assumed): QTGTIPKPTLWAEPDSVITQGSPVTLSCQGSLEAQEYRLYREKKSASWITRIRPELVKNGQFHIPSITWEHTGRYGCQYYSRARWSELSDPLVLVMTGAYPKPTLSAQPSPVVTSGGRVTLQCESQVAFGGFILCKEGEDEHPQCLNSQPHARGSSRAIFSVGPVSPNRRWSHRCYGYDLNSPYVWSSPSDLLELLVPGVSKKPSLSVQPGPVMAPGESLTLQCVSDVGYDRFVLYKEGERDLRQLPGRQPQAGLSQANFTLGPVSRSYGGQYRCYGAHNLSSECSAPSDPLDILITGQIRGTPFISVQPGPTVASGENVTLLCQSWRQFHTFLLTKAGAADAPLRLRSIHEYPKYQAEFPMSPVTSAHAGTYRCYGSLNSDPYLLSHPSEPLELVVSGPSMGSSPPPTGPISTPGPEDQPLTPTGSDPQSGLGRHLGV
# Test: as above
# Description: as §1
row,binding result,Binder
1,no binding,B1
2,no binding,B12
3,no binding,B2
4,no binding,B3
5,no binding,B4
6,no binding,B5
7,no binding,B6
8,no binding,B7
9,no binding,B8
10,no binding,B9
11,no binding,B10
12,no binding,B11

# Target: LILRB3 (human (not printed on the sheet), UniProt O75022)
# Sequence (O75022 24-443 limits assumed): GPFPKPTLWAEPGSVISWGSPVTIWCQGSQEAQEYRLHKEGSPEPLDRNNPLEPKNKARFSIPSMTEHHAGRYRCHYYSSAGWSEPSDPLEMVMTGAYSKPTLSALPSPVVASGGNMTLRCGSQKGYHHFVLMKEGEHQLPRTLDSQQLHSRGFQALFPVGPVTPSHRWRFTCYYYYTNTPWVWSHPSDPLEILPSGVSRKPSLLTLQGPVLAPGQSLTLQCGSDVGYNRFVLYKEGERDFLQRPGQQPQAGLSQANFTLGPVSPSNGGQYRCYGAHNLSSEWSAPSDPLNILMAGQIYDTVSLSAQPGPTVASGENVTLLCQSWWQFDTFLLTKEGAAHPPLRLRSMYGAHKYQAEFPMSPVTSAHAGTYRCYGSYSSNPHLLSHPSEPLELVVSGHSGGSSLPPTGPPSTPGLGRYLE
# Test: as above
# Description: as §1
row,binding result,Binder
1,no binding,B1
2,no binding,B12
3,no binding,B2
4,no binding,B3
5,no binding,B4
6,no binding,B5
7,no binding,B6
8,no binding,B7
9,no binding,B8
10,no binding,B9
11,no binding,B10
12,no binding,B11

# Target: LILRB5 (human (not printed on the sheet), UniProt O75023)
# Sequence (O75023 24-458 limits assumed): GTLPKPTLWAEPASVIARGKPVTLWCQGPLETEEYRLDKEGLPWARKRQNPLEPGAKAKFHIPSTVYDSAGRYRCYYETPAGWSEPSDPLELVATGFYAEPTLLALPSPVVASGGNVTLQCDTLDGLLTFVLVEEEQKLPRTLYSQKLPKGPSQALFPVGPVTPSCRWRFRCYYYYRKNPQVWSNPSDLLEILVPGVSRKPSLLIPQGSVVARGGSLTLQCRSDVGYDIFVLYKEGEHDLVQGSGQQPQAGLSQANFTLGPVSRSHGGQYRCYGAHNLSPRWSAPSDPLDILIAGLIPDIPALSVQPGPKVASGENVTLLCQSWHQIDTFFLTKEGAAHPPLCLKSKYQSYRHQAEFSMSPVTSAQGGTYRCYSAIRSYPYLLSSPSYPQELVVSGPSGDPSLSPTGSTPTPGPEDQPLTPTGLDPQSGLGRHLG
# Test: as above
# Description: as §1
row,binding result,Binder
1,no binding,B1
2,no binding,B12
3,no binding,B2
4,no binding,B3
5,no binding,B4
6,no binding,B5
7,no binding,B6
8,no binding,B7
9,no binding,B8
10,no binding,B9
11,no binding,B10
12,no binding,B11

# Target: LILRA1 (human (not printed on the sheet), UniProt O75019)
# Sequence (O75019 17-461 limits assumed): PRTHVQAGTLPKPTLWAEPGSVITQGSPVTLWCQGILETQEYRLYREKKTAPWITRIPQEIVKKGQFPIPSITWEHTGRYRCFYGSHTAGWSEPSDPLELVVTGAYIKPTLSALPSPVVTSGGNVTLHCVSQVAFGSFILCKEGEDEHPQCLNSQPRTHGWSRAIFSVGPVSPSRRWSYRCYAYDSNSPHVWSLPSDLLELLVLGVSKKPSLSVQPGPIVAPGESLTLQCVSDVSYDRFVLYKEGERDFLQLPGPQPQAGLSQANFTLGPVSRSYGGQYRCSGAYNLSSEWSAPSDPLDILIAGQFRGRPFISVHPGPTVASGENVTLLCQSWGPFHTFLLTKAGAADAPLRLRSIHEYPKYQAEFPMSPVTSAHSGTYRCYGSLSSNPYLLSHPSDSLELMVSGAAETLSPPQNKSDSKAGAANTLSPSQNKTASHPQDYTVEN
# Test: as above
# Description: as §1
row,binding result,Binder
1,no binding,B1
2,no binding,B12
3,no binding,B2
4,no binding,B3
5,no binding,B4
6,no binding,B5
7,no binding,B6
8,no binding,B7
9,no binding,B8
10,no binding,B9
11,no binding,B10
12,no binding,B11

# Target: LILRA2 (human (not printed on the sheet), UniProt Q8N149)
# Sequence (Q8N149 24-449 limits assumed): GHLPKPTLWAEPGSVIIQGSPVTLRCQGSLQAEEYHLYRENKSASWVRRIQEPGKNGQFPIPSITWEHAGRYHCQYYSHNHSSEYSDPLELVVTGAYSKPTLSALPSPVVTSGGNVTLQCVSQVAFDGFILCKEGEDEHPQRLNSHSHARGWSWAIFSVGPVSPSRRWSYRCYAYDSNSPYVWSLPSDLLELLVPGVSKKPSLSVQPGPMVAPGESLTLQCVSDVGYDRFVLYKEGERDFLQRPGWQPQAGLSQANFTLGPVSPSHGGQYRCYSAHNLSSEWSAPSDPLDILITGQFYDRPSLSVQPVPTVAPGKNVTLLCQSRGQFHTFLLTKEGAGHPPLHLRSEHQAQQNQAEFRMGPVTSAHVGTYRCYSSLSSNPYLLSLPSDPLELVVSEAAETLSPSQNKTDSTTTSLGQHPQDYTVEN
# Test: as above
# Description: as §1
row,binding result,Binder
1,no binding,B1
2,no binding,B12
3,no binding,B2
4,no binding,B3
5,no binding,B4
6,no binding,B5
7,no binding,B6
8,no binding,B7
9,no binding,B8
10,no binding,B9
11,no binding,B10
12,no binding,B11

# Target: LILRA3 (human (not printed on the sheet), UniProt Q8N6C8)
# Sequence (Q8N6C8 24-439 limits assumed): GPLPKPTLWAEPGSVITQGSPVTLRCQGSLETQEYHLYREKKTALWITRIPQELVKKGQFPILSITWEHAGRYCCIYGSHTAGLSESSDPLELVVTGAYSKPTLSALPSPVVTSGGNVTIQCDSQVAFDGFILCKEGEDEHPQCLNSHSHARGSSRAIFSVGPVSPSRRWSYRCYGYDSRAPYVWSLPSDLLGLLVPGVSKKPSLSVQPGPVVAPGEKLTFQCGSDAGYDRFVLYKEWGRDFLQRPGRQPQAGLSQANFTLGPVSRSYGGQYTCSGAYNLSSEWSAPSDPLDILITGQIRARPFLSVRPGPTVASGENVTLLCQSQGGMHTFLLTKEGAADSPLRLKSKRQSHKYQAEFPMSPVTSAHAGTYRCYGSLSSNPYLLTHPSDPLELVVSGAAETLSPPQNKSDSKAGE
# Test: as above
# Description: as §1
row,binding result,Binder
1,no binding,B1
2,no binding,B12
3,no binding,B2
4,no binding,B3
5,no binding,B4
6,no binding,B5
7,no binding,B6
8,no binding,B7
9,no binding,B8
10,no binding,B9
11,no binding,B10
12,no binding,B11

# Target: LILRA4 (human (not printed on the sheet), UniProt P59901)
# Sequence (P59901 24-446 limits assumed): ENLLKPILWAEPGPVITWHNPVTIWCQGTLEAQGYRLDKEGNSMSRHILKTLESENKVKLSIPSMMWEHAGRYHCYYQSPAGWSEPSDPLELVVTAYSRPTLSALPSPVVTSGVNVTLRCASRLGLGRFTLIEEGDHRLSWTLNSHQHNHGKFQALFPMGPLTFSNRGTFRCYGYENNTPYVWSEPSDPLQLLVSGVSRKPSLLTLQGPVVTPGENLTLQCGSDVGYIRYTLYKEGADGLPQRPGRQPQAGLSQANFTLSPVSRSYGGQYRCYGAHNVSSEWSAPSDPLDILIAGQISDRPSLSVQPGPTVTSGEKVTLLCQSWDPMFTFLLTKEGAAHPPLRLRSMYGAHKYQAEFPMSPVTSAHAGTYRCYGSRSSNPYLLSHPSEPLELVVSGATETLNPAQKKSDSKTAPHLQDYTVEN
# Test: as above
# Description: as §1
row,binding result,Binder
1,no binding,B1
2,no binding,B12
3,no binding,B2
4,no binding,B3
5,no binding,B4
6,no binding,B5
7,no binding,B6
8,no binding,B7
9,no binding,B8
10,no binding,B9
11,no binding,B10
12,no binding,B11

# Target: LILRA5 (human (not printed on the sheet), UniProt A6NI73)
# Sequence (A6NI73 42-268 limits assumed): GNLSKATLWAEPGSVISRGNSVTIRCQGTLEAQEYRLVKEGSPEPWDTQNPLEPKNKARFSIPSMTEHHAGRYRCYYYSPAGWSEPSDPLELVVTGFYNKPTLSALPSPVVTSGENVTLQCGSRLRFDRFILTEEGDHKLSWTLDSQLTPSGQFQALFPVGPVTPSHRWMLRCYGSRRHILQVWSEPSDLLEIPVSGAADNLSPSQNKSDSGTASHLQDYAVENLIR
# Test: as above
# Description: as §1
row,binding result,Binder
1,no binding,B1
2,no binding,B12
3,no binding,B2
4,no binding,B3
5,no binding,B4
6,no binding,B5
7,no binding,B6
8,no binding,B7
9,no binding,B8
10,no binding,B9
11,no binding,B10
12,no binding,B11

# Target: LILRA6 (human (not printed on the sheet), UniProt Q6PI73)
# Sequence (Q6PI73 24-447 limits assumed): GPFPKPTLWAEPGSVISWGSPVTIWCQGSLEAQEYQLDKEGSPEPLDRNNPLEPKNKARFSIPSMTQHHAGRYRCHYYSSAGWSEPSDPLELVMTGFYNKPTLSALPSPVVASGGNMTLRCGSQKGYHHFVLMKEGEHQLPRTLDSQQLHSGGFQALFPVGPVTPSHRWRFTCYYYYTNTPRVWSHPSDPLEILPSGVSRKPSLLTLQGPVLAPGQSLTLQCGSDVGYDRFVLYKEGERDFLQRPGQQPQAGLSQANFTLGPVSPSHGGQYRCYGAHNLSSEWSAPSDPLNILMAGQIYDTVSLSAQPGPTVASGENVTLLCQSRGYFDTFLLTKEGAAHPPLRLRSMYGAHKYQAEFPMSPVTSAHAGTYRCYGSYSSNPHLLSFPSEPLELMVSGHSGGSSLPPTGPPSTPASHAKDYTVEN
# Test: as above
# Description: as §1
row,binding result,Binder
1,no binding,B1
2,no binding,B12
3,no binding,B2
4,no binding,B3
5,no binding,B4
6,no binding,B5
7,no binding,B6
8,no binding,B7
9,no binding,B8
10,no binding,B9
11,no binding,B10
12,no binding,B11
